Data: patent US20240109961A1 (CELLDEX THERAPEUTICS, published 2024)

Assays:
[1] = biological target: human KIT (wild-type KIT) (human, UniProt P10721 26-976); test: cell-based or functional assay
[2] = biological target: T1, recombinant human FcγRI (human, UniProt P12314 16-288, limits assumed); test: bio-layer interferometry (Octet QKe); His-tagged receptor on anti-Penta-His biosensor, antibody in solution
T1 construct: Histidine-tagged recombinant receptor captured on anti-Penta-His biosensors; also called Fc-gamma receptor I; not shown: histidine tag
T1 sequence (P12314 16-288 limits assumed): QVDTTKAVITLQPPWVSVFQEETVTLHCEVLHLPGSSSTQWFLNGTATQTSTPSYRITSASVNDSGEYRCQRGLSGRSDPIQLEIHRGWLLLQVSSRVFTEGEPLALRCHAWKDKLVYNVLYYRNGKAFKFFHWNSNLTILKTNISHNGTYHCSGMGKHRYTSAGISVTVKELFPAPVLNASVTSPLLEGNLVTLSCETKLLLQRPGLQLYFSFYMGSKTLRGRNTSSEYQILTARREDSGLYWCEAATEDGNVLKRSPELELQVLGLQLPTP

[3] = biological target: T2, recombinant human FcγRIIa (human, UniProt P12318 36-218, limits assumed); test: as above
T2 construct: Histidine-tagged recombinant receptor; not shown: histidine tag
T2 sequence (looked up): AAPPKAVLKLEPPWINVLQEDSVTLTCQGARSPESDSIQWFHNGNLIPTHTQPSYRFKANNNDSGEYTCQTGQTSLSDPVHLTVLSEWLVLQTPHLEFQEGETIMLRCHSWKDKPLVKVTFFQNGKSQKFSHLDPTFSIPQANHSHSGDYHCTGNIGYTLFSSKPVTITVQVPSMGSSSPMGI

[4] = biological target: T3, recombinant human FcγRIIb (human, UniProt P31994 46-217, limits assumed); test: as above
T3 construct: Histidine-tagged recombinant receptor; not shown: histidine tag
T3 sequence (looked up): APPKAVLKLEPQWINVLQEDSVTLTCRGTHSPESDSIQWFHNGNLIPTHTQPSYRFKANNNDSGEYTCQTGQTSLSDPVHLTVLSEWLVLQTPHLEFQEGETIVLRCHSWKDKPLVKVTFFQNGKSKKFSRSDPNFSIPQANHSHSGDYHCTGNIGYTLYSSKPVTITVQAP

[5] = biological target: T4, recombinant human FcγRIIIa (human, UniProt P08637 17-208); test: as above
T4 construct: Histidine-tagged recombinant receptor; not shown: histidine tag
T4 sequence (P08637 17-208 limits assumed): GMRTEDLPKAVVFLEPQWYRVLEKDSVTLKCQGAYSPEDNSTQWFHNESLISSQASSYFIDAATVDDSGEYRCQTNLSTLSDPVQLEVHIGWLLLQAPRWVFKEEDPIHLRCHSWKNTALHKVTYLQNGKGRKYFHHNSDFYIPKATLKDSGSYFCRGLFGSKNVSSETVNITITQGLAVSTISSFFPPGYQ

[6] = biological target: T5, recombinant human FcγRIIIb (human, UniProt O75015 17-200); test: as above
T5 construct: Histidine-tagged recombinant receptor; not shown: histidine tag
T5 sequence (O75015 17-200 limits assumed): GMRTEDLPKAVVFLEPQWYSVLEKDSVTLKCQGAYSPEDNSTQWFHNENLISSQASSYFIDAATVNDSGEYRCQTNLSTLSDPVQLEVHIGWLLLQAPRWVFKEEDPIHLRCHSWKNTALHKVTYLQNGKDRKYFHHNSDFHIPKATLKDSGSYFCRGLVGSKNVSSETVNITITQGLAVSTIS

[7] = biological target: T6, human neonatal Fc Receptor (FcRn) (human, UniProt P55899 24-297; P61769 21-119); test: bio-layer interferometry (Octet QKe) at pH 6.0; His-tagged FcRn on anti-Penta-His biosensor, antibody in solution
T6 construct: not shown: histidine tag
T6 sequence (P55899 24-297 limits assumed, form in doubt, chain 1 of 2): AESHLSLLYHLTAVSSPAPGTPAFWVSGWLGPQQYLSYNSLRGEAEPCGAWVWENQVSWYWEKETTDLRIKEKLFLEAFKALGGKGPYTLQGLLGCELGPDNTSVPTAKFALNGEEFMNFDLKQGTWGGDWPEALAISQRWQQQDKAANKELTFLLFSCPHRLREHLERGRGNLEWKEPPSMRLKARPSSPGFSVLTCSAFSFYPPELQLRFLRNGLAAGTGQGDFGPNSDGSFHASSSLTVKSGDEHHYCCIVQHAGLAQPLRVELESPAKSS
T6 sequence (P61769 21-119 limits assumed, form in doubt, chain 2 of 2): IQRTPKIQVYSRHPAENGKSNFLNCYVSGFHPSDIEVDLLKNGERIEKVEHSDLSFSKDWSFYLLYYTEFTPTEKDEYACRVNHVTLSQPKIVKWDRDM

[8] = biological target: T6, human neonatal Fc Receptor (FcRn); test: bio-layer interferometry (Octet QKe) at pH 7.2; His-tagged FcRn on anti-Penta-His biosensor, antibody in solution
Protocol: (§1) Binding to recombinant human Fc receptors was measured by bio-layer interferometry using an Octet® QKe instrument. […] Curve fitting was performed using the instrument's analysis software. Binding to FcRn was performed with association and dissociation steps at pH 6.0 as well as pH 7.2.

[9] = biological target: T6, human neonatal Fc Receptor (FcRn); test: bio-layer interferometry (Octet QKe), His-tagged FcRn captured on anti-Penta-His biosensors, pH 7.2, antibody range 500-15.6 nM, R2 0.9876
Protocol: as §1

[10] = biological target: T6, human neonatal Fc Receptor (FcRn); test: bio-layer interferometry (Octet QKe), His-tagged FcRn captured on anti-Penta-His biosensors, pH 6.0, antibody range 31.25-1.9 nM, R2 0.9869
Protocol: as §1

[11] = biological target: T6, human neonatal Fc Receptor (FcRn); test: bio-layer interferometry (Octet QKe), His-tagged FcRn captured on anti-Penta-His biosensors, pH 7.2, antibody range 500-15.6 nM, R2 0.9876; row head Kdis(1/s)
Protocol: as §1

[12] = biological target: T6, human neonatal Fc Receptor (FcRn); test: bio-layer interferometry (Octet QKe), His-tagged FcRn captured on anti-Penta-His biosensors, pH 6.0, antibody range 31.25-1.9 nM, R2 0.9869; row head Kdis(1/s)
Protocol: as §1

Chain of human KIT (wild-type KIT) (P10721 other isoform, or with tags, fused parts or gaps limits assumed): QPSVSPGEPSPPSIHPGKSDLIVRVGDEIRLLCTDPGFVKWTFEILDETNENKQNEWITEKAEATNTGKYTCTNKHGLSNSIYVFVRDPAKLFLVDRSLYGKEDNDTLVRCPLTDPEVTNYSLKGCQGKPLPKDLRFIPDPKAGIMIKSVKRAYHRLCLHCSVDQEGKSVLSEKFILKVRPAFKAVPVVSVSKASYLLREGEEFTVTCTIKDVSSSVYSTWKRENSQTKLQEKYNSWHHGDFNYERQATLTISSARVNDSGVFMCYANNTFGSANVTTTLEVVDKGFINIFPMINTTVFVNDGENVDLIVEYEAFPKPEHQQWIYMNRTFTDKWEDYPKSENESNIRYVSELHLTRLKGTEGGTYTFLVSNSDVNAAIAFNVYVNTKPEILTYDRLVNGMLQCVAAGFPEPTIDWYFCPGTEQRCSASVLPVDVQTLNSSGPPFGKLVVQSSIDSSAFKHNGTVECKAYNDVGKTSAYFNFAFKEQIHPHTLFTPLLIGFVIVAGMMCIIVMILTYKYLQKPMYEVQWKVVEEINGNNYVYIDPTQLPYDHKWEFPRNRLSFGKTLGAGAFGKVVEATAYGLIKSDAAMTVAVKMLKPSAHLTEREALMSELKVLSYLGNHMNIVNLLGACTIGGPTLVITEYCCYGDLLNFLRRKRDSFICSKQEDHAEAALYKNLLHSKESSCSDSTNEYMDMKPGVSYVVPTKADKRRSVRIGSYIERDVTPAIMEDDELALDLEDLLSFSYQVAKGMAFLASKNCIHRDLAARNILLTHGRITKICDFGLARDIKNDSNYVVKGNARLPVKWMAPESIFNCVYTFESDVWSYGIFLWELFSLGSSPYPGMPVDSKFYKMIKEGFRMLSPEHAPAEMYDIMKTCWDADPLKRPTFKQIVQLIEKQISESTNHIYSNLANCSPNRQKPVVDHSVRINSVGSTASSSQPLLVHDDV

B1: mAb1 (antibody)
heavy: QVQLVQSGAEVKKPGASVKLSCKASGYTFTDYYINWVRQAPGKGLEWIARIYPGSGNTYYNEKFKGRATLTADKSTSTAYMQLSSLRSEDTAVYFCARGVYYFDYWGQGTTVTVSSASTKGPSVFPLAPSSKSTSGGTAALGCLVKDYFPEPVTVSWNSGALTSGVHTFPAVLQSSGLYSLSSVVTVPSSSLGTQTYICNVNHKPSNTKVDKKVEPKSCDKTHTCPPCPAPEAQGGPSVFLFPPKPKDTLYITREPEVTCVVVDVSHEDPEVKFNWYVDGVEVHNAKTKPREEQYNSTYRVVSVLTVLHQDWLNGKEYKCQVSNKALPAPIEKTISKAKGQPREPQVYTLPPSRDELTKNQVSLTCLVKGFYPSDIAVEWESNGQPENNYKTTPPVLDSDGSFFLYSKLTVDKSRWQQGNVFSCSVMHEALHNHYTQKSLSLSPG
light: DIVMTQSPSSLSASVGDRVTITCKASQNVRTNVAWYQQKPGKAPKALIYSASYRYSGVPDRFTGSGSGTDFTLTISSLQPEDFADYFCQQYNSYPRTFGGGTKVEIKRTVAAPSVFIFPPSDEQLKSGTASVVCLLNNFYPREAKVQWKVDNALQSGNSQESVTEQDSKDSTYSLSSTLTLSKADYEKHKVYACEVTHQGLSSPVTKSFNRGEC
notes: Expressed in CHO cells; also called anti-KIT antibody mAb1; Fc mutated anti-KIT antibody
With B1 the “mean IC50, inhibition of SCF-dependent M-07e cell proliferation” value [1] was 1.11 nM, the binding result [2] was “no binding (tested: 500 nM)” and the binding result [3] was “no binding (tested: 500 nM)”. B1: no binding (tested: 500 nM) [4]; no binding (tested: 500 nM) [5]; no binding (tested: 500 nM) [6]. It also gave a Kd [7] of 0.38 nM, a Kd [8] of 77.1 nM and a kon [9] of 1.05e+06 M⁻¹ s⁻¹. For the same binder, the Kd [10] was 0.383 nM, the kon [10] was 2e+06 M⁻¹ s⁻¹ and the koff [11] was 0.0807 s⁻¹. For the same binder, the koff [12] was 0.000765 s⁻¹.
